Laboratory results as given in patent publication US10889629B2, “Transfected T-cells and T-cell receptors for use in immunotherapy against cancers” (IMMATICS BIOTECHNOLOGIES GMBH, priority 2016, dated 2021).
“Also recorded” adds a separate entry of the source.

Columns and labels:
[1] = target: HLA-A*0201 molecule (Homo sapiens, UniProt P04439, D140Y/D185E/D98H/E176V/E277Q/G131W/G231S/I119V/I121R/I166T/I218V/L300P/L318F/N151K/N90K/P208A/P217A/Q86G/Q94H/R138H/R169H/T345S); settings: cited from earlier work
[2] = system: HLA-A*0201-positive PBMCs and HLA-A*0201/Kb transgenic mice; settings: in vitro from PBMCs and in HLA-A*0201/Kb transgenic mice; cited from earlier work
[3] = target: T1, MHC/MAG-003 complex (Homo sapiens, UniProt P04439+P43358, D140Y/D185E/D98H/E176V/E277Q/G131W/G231S/I119V/I121R/I166T/I218V/L300P/L318F/N151K/N90K/P208A/P217A/Q86G/Q94H/R138H/R169H/T345S); test: IFN-γ release assay: TCR-RNA-electroporated CD8+ T-cells co-incubated with peptide-loaded target cells; format: cell-based
T1 construct: endogenous in cells
Method: In another aspect, to obtain T-cells expressing TCRs of the present description, TCR RNAs were synthesized by techniques described in the art, e.g., in vitro transcription systems. The in vitro-synthesized TCR RNAs were then introduced into primary CD8+ T-cells obtained from healthy donors by electroporation to re-express tumor specific TCR-alpha and/or TCR-beta chains.
To determine specificity and affinity of TCRs, the transformed CD8+ T-cells were co-incubated with MAG-003-loaded target cells or with target cells loaded with homologous but unrelated peptide RABGAP1L-001 (SEQ ID NO:91), AXIN1-001 (SEQ ID NO:92), ANO5-001 (SEQ ID NO:93), TPX2-001 (SEQ ID NO:94), SYNE3-001 (SEQ ID NO:95), MIA3-001 (SEQ ID NO:96), HERC4-001 (SEQ ID NO:97), PSME2-001 (SEQ ID NO:98), HEATR5A-001 (SEQ ID NO:99) or CNOT1-003 (SEQ ID NO:100) or control peptide NYESO1-001 (SEQ ID NO:101), followed by IFN-γ release assay. Unloaded target cells and CD8+ T-cells alone served as controls. IFN-γ secretion from CD8+ T-cells is indicative of T-cell activation with cytotoxic activity.
As shown in FIGS. 5-7 all primary CD8+ T-cells transformed with TCRs of the present disclosure, after co-incubation with MAG-003-loaded target cells, released much higher levels of IFN-γ than that stimulated by unrelated peptide-loaded target cells, and the controls.

[4] = target: MHC/MAG-003 tetramer (Homo sapiens, UniProt P04439+P43358, D140Y/D185E/D98H/E176V/E277Q/G131W/G231S/I119V/I121R/I166T/I218V/N151K/N90K/P208A/P217A/Q86G/Q94H/R138H/R169H); test: Tetramer staining of TCR-RNA-electroporated CD8+ T-cells, MHC/MAG-003 tetramer; format: binding
From the text: (§1) FIG. 8 show MHC/MAG-003 tetramer or MHC/NYESO1-001 tetramer staining of CD8+ T-cells electroporated with alpha and beta chain RNA of TCRs R7P1 D5, R20P1H7 and R10P2G12 (Table 2), respectively. CD8+ T-cells electroporated with RNA of 1G4 TCR that specifically binds to MHC/NYESO1-001 complex and mock electroporated CD8+ T-cells served as controls.
(§2) T-cell activation was further confirmed using a tetramer staining technique to detect MHC/MAG-003-binding activated cytotoxic T-cells. As shown in FIG. 8 and Table 11, a higher percentage of TCR-expressing CD8+ T-cells were stained positive fluorescent-labeled MHC/MAG-003 tetramer than that with MHC/NYESO1-001 control tetramer or mock control. […] The alpha and beta chains of TCR 1G4 are shown in SEQ ID NO:89 and 90, respectively: […]

[5] = system: MHC/NYESO1-001 tetramer; test: Tetramer staining of TCR-RNA-electroporated CD8+ T-cells, MHC/NYESO1-001 control tetramer; format: binding, human
From the text: as §1, §2

[6] = system: A-375 (human melanoma cell line, positive for HLA-A2 and MAG-003 expression); test: IFNγ release, TCR-expressing CD8+ T-cells co-incubated with A-375; format: cell-based
Method: (§3) To determine efficacy of T-cells expressing TCRs described herein, primary CD8+ T-cells electroporated with RNA of the TCRs R7P1 D5, R20P1H7 and R10P2G12 were co-incubated with different human cancer cell lines, e.g., A-375 (human melanoma cell line, which is positive for HLA-A2 and MAG-003 expression), T98G (human glioblastoma cell line, which is HLA-A2-positive and MAG-003-negative), and SK-BR-3 (human breast cancer cell line, which is HLA-A2-negative and MAG-003-negative), followed by IFNγ release assay.
(§4) TCRs of interest were expressed in human T cells via RNA electroporation and the T cells were assessed for IFN-γ release after co-culture with different target cells, such as T2 cells loaded with different peptides as well as tumor cell lines and primary cells from healthy tissues. T-cell activation data are shown in absolute IFN-γ levels or a normalized way as indicated below.
(§5) Efficacy of CD8+ T cells expressing TCRs R7P1 D5, R10P2G12 and R20P1H7 was determined by T cell activation studies (IFN-γ release) using different tumor cell lines as target cells. The characterization of the safety profile of TCRs of interest was approached by testing the potential activation of TCR-expressing T cells upon co-culture with isolated primary cell types from healthy tissues and induced pluripotent stem cell (iPSC)-derived cell types from HLA-A*02-positive donors (Table 13). Cell types were selected in a manner to cover most of the critical organs like e.g. brain, heart and liver and different cell types as epithelium, endothelium or smooth muscle. Tumor cell lines were analyzed side-by-side as positive and negative controls.
(§6) Normalization Method for IFNγ Release: Meannorm(TCRoi;co)=[mean(TCRoi;co)−mean(TCRoi;effector only)]−[mean(mock;co)−mean(mock;effector only)]

[7] = system: T98G (human glioblastoma cell line, HLA-A2-positive and MAG-003-negative); test: IFNγ release, TCR-expressing CD8+ T-cells co-incubated with T98G; format: cell-based; settings: Example 4, T98G, compared with effector cell only control
Method: as §3

[8] = system: SK-BR-3 (human breast cancer cell line, HLA-A2-negative and MAG-003-negative); test: IFNγ release, TCR-expressing CD8+ T-cells co-incubated with SK-BR-3; format: cell-based; settings: Example 4, SK-BR-3, compared with effector cell only control
Method: as §3

[9] = system: human non-small cell cancer cell line, H1755 (NCI-H1755); test: IFNγ release, TCR-expressing CD8+ T-cells co-incubated with H1755; format: cell-based; settings: Example 6, NCI-H1755 expressing HLA-A*02 and MAGEA4
Method: as §3, §4, §5, §6

[10] = system: HLA-A*02 positive cell types from healthy tissues; test: Safety: IFN-γ release upon co-culture with primary and iPSC-derived cell types from healthy tissues; format: cell-based, human; settings: E:T ratio 1:1, 20 h, ELISA, normalized
From the text: FIG. 13 T cells transfected with RNA coding for TCR R7P1 D5, R10P2G12, R20P1H7, mock or the control TCR 1G4 (SEQ ID NO:X) were co-cultured with different primary human healthy tissue cells (see table 13 for abbreviations), the target negative tumor cell line MCF-7 and the MAGEA4- and NY-ESO1-positive cell lines A-375 and NCI-H1755. TCRs R7P1D5, R10P2G12, R20P1H7 and 1G4 expression in T cells was achieved by electroporation using an RNA vector. […] E:T ratio 1:1, 20,000 cells each, mean of IFN-γ release after 20 h from replicates is shown as measured by ELISA. Error bars indicate standard deviations. Results were normalized by subtraction of IFN-γ release from TCR-transfected T cells only and IFN-γ release due to co-culture of Target cells and T cells not expressing TCR of interest.
as §4, §5, §6
The respective CVnorm was calculated: CVnorm(TCRoi;co)=[CV(TCRoi;co)^2+CV(TCRoi;effector only)^2+CV(mock;co)^2+CV(mock;effector only)^2]^[½] TCRoi=effector cells expressing TCR of interest Mock=effector cells without exogenous TCR expression Co=effector cells co-cultured with target cells Effector only=effector cells not co-cultured Mean(norm)=mean IFNγ release (normalized) CV(norm)=coefficient of variation (normalized) Results: […]

[11] = system: NYESO1 expressing HLA-A*02 positive tumor cell lines; test: IFN-γ release of 1G4-expressing CD8+ T cells with NYESO1 expressing tumor cell lines; format: cell-based, human; settings: Example 6
Method: as §4, §5

[12] = system: MHC/NYESO1-001 complex; test: Activation of 1G4-transformed CD8+ T-cells by NYESO1-001-loaded target cells; format: cell-based, human

KVLEHVVRV (listed as Homo sapiens) [MAG-003]
binding affinity and stability towards HLA-A*0201 molecule [1]: potent binding affinity and stability
induction of peptide-specific CTLs [2]: elicits peptide-specific CTLs

YLLEHVVRL (listed as Homo sapiens) [p286-1Y2L9L]
binding affinity and stability towards HLA-A*0201 molecule [1]: potent binding affinity and stability
induction of peptide-specific CTLs [2]: showed the capability to induce specific CTLs

B1: R20P1H7: TCR, alpha chain SEQ ID NO:39 and beta chain SEQ ID NO:47, MAG-003-specific (protein, listed as Homo sapiens)
alpha: MEKMLECAFIVLWLQLGWLSGEDQVTQSPEALRLQEGESSSLNCSYTVSGLRGLFWYRQDPGKGPEFLFTLYSAGEEKEKERLKATLTKKESFLHITAPKPEDSATYLCAVQGENSGYSTLTFGKGTMLLVSPDIQNPDPAVYQLRDSKSSDKSVCLFTDFDSQTNVSQSKDSDVYITDKTVLDMRSMDFKSNSAVAWSNKSDFACANAFNNSIIPEDTFFPSPESSCDVKLVEKSFETDTNLNFQNLSVIGFRILLLKVAGFNLLMTLRLWSS
beta: MGPQLLGYVVLCLLGAGPLEAQVTQNPRYLITVTGKKLTVTCSQNMNHEYMSWYRQDPGLGLRQIYYSMNVEVTDKGDVPEGYKVSRKEKRNFPLILESPSPNQTSLYFCASSLGPGLAAYNEQFFGPGTRLTVLEDLKNVFPPEVAVFEPSEAEISHTQKATLVCLATGFYPDHVELSWWVNGKEVHSGVSTDPQPLKEQPALNDSRYCLSSRLRVSATFWQNPRNHFRCQVQFYGLSENDEWTQDRAKPVTQIVSAEAWGRADCGFTSESYQQGVLSATILYEILLGKATLYAVLVSALVLMAMVKRKDSRG
IFNγ ([3]; CD8+ T-cells electroporated with TCR RNA, co-incubation with MAG-003-loaded target cells): 200 to 900 pg/mL
EC50 ([3]; target peptide (MAG-003) titration, IFN-γ release): ~10 nM
% MAG-003 TET-positive primary CD8+ T-cells [4]: 5.73%
% NYESO1-001 TET-positive primary CD8+ T-cells [5]: 0.87%
IFNγ release ([6]; Example 4, A-375, HLA-A2-positive and MAG-003-positive): IFNγ release was observed
T-cell activation (IFN-γ release) ([6]; Example 6, A-375 expressing HLA-A*02 and MAGEA4): activity
IFNγ release [7]: basal levels of IFNγ release
IFNγ release [8]: basal levels of IFNγ release
T-cell activation (IFN-γ release) [9]: activity
T-cell activation (IFN-γ release) by healthy tissue cells [10]: no activation was observed; also recorded: did not lead to significant TCR-mediated recognition and T-cell activation

B2: 1G4: control TCR known to bind specifically to MHC/NYESO1-001 complex; alpha and beta chains SEQ ID NO:89 and 90 (protein, listed as Homo sapiens)
alpha: METLLGLLILWLQLQWVSSKQEVTQIPAALSVPEGENLVLNCSFTDSAIYNLQWFRQDPGKGLTSLLLIQSSQREQTSGRLNASLDKSSGRSTLYIAASQPGDSATYLCAVRPTSGGSYIPTFGRGTSLIVHPYIQNPDPAVYQLRDSKSSDKSVCLFTDFDSQTNVSQSKDSDVYITDKTVLDMRSMDFKSNSAVAWSNKSDFACANAFNNSIIPEDTFFPSPESSCDVKLVEKSFETDTNLNFQNLSVIGFRILLLKVAGFNLLMTLRLWSS
beta: MSIGLLCCAALSLLWAGPVNAGVTQTPKFQVLKTGQSMTLQCAQDMNHEYMSWYRQDPGMGLRLIHYSVGAGITDQGEVPNGYNVSRSTTEDFPLRLLSAAPSQTSVYFCASSYVGNTGELFFGEGSRLTVLEDLKNVFPPEVAVFEPSEAEISHTQKATLVCLATGFYPDHVELSWWVNGKEVHSGVSTDPQPLKEQPALNDSRYCLSSRLRVSATFWQNPRNHFRCQVQFYGLSENDEWTQDRAKPVTQIVSAEAWGRADCGFTSESYQQGVLSATILYEILLGKATLYAVLVSALVLMAMVKRKDSRG
T-cell activation (IFN-γ release) by healthy tissue cells [10]: not towards the indicated panel of healthy tissue cells
T-cell reactivity (IFN-γ release) [11]: reactive
T-cell activation [12]: readily activated
